Reference: patent US20080026996A1, “Selective Vpac2 Receptor Reptide Agonists” (ELI LILLY AND COMPANY, priority 2004, published 2008)
Where no end group is shown, it is not given here. [ ]: non-standard residue; d: D form. The star is where a group is joined. Met(O) = CS(=O)CC[C@H](N)C(=O)O; NMeV = CN[C@H](C(=O)O)C(C)C; NMeA = CN[C@@H](C)C(=O)O; Hexanoyl = CCCCCC(=O)*; Aib = CC(C)(N)C(=O)O; Mpa = O=C(O)CCS

T1: human VPAC2 receptor (human, UniProt P41587 24-438)
T1 sequence (looked up): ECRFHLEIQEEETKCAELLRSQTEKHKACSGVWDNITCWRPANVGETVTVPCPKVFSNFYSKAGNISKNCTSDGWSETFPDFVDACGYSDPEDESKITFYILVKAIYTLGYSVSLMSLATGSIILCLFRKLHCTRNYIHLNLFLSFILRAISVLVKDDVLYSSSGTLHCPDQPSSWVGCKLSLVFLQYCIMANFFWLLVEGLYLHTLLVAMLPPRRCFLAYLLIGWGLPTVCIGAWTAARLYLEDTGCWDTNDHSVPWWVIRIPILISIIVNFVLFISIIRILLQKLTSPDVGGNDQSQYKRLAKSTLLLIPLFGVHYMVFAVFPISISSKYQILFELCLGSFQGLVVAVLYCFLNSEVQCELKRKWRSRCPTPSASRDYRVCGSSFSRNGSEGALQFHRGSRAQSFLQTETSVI


Molecular target: T1, human VPAC2 receptor
Experiment: cell-based or functional assay

Binder | EC50 cAMP, Alpha Screen
Hexanoyl-HSDAVFTDQYTRLRRQVAARKYLQSIRQGGPSSGAPPPS [P220] | 0.12 nM
Hexanoyl-HSD[Aib]VFTDNYTRLRKQVAAKKYLQSIKNKRYGGPSSGAPPPS (ends and bridges not checked) [P209] | 0.1 nM
Hexanoyl-HSDAVFTDNYTRLRK(Ac)QVAAKK(Ac)YLQSIKNKRYGGPSSGAPPPS [P194] | 0.13 nM
Hexanoyl-HSDIVFTDNYTRLRKQVAAKKYLQSIKNKRYGGPSSGAPPPS [P221] | 1.98 nM
Hexanoyl-HSDA[NMeV]FTDNYTRLRKQVAAKKYLQSIKNKRYGGPSSGAPPPS [P211] | 989 nM
Hexanoyl-HSD[dA]VFTDNYTRLRKQVAAKKYLQSIKNKRYGGPSSGAPPPS [P207] | 0.86 nM
Hexanoyl-HSDA[dV]FTDNYTRLRKQVAAKKYLQSIKNKRYGGPSSGAPPPS [P210] | 0.91 nM
Hexanoyl-HSD[NMeA]VFTDNYTRLRKQVAAKKYLQSIKNKRYGGPSSGAPPPS [P208] | 50.1 nM
Hexanoyl-HSDLVFTDNYTRLRKQVAAKKYLQSIKNKRYGGPSSGAPPPS [P223] | 5.82 nM
Hexanoyl-HSDAVFTLNYTRLRKQVAAKKYLQSIKNKRYGGPSSGAPPPS [P161] | 4 nM
Hexanoyl-HSDAVFTYNYTRLRKQVAAKKYLQSIKNKRYGGPSSGAPPPS [P163] | 5.53 nM
Hexanoyl-HSDAVFTDNYTRLQKQVAAQKYLQSIKNKRYGGPSSGAPPPS [P252] | 0.26 nM
Hexanoyl-HSDAVFTDNYTRLRKQVAAKRYLQSIKNKRYGGPSSGAPPPS [P182] | 0.29 nM
Hexanoyl-HSDAVFTDNYTRLRKQVAAAKYLQSIKNKRYGGPSSGAPPPS [P181] | 0.13 nM
Hexanoyl-HSDAVFTDNYTRLRKQVAGKKYLQSIKNKRYGGPSSGAPPPS [P275] | 0.32 nM
Hexanoyl-HSEAVFTDNYTRLRKQVAAKKYLQSIKNKRYGGPSSGAPPPS [P224] | 0.14 nM
Hexanoyl-HSDAVFTDNYTRLRKQVAAKKYIQSIKNKRYGGPSSGAPPPS [P233] | 0.11 nM
Hexanoyl-HSDAVFTDNYTRLRKQVAAKKYLQSIKNKRFGGPSSGAPPPS [P203] | 0.14 nM
Hexanoyl-HSDAVFTDNYTRLFKQVAAKKYLQSIKNKRYGGPSSGAPPPS [P175] | 0.68 nM
Hexanoyl-HSDAVFTDNYTRLRKQLAAKKYLQSIKNKRYGGPSSGAPPPS [P290] | 0.22 nM
Hexanoyl-HSDAVFTDNYTRLLKQVAAKKYLQSIKNKRYGGPSSGAPPPS [P174] | 0.26 nM
Hexanoyl-HSDAVFTDNYTRLLAKVALQKYLQSIKNKRYGGPSSGAPPPS [P196] | 0.23 nM
Hexanoyl-HSDAVFTDNYTRLRKQVAAKKYFQSIKNKRYGGPSSGAPPPS [P231] | 0.26 nM
Hexanoyl-HSDALFTDNYTRLRKQVAAKKYLQSIKNKRYGGPSSGAPPPS [P289] | 0.16 nM

Binder | EC50 cAMP, Alpha Screen
Hexanoyl-HSDAVFTDNYTRLRKQVAAKLYLQSIKNKRYGGPSSGAPPPS [P185] | 0.18 nM
Hexanoyl-HSDAVFTDNYTRLRKQVAAKAYLQSIKNKRYGGPSSGAPPPS [P184] | 0.22 nM
Hexanoyl-HSDAVFTDNYTRLLAQLALQKYLQSIKNKRYGGPSSGAPPPS [P195] | 0.25 nM
Hexanoyl-HSDAVFTDNYTRLRKQVAAKKYVQSIKNKRYGGPSSGAPPPS [P234] | 0.16 nM
Hexanoyl-HSDAVFTDNYTRLRFQVAAKKYLQSIKNKRYGGPSSGAPPPS [P180] | 1.04 nM
Hexanoyl-HSDAVFTDNYTRLRRQVAAKKYLQSIKNKRYGGPSSGAPPPS [P176] | 0.28 nM
Hexanoyl-HSDAVFTDNYTRLRKQVAAKFYLQSIKNKRYGGPSSGAPPPS [P186] | 0.15 nM
Hexanoyl-HSDAVFTDNYTRLRLQVAAKKYLQSIKNKRYGGPSSGAPPPS [P179] | 0.24 nM
Hexanoyl-HSDAVFTDNYTRLQKQVAAKQYLQSIKNKRYGGPSSGAPPPS [P253] | 0.46 nM
Hexanoyl-HSDAVFTDNYTRLLAKLALQKYLQSIKNKRYGGPSSGAPPPC [P164] | 0.11 nM
Hexanoyl-HSDAVFTDQYTRLLAKLALQKYLQSIKQKRYGGPSSGAPPPS [P192] | 0.18 nM
Hexanoyl-HSDAVFTDNYTRLRKQVAAKKYAQSIKNKRYGGPSSGAPPPS [P235] | 0.82 nM
Hexanoyl-HSDAVFTEEYTRLQKQVAAKQYLQSIKNKRYGGPSSGAPPPS [P165] | 0.94 nM
Hexanoyl-HSDAVFTDNYTRLAKQVAAKKYLQSIKNKRYGGPSSGAPPPS [P173] | 0.25 nM
Hexanoyl-HSDAVFTDNYTRLRKQVAAKQYLQSIKNKRYGGPSSGAPPPS [P183] | 0.14 nM
Hexanoyl-HSDAVFTRNYTRLRKQVAAKKYLQSIKNKRYGGPSSGAPPPS [P162] | 11.1 nM
Hexanoyl-HSDAVFTDNYTRLLAKLAAQKYLQSIKNKRYGGPSSGAPPPS [P197] | 0.09 nM
Hexanoyl-HSDAVFTDNYTRLRKQVAAKKYWQSIKNKRYGGPSSGAPPPS [P230] | 0.3 nM
Hexanoyl-HSDAVFTDNYTRLKKQVAAKKYLQSIKNKRYGGPSSGAPPPS [P171] | 0.82 nM
[Met(O)]HSDAVFTDNYTRLRKQVAAKKYLQSIKNKRYGGPSSGAPPPS (ends and bridges not checked) [P199] | 29.6 nM
[Mpa]HSDAVFTDNYTRLLAKLALQKYLQSIKNKRYGGPSSGAPPPS [P205] | 1.14 nM
Hexanoyl-HSDA[Aib]FTDNYTRLRKQVAAKKYLQSIKNKRYGGPSSGAPPPS (ends and bridges not checked) [P212] | 0.12 nM
Hexanoyl-HSDAVFTDNYTRLRKQVAAKK[Aib]LQSIKNKRYGGPSSGAPPPS (ends and bridges not checked) [P228] | 3.48 nM
